Experimental data taken from the DeepSol protein solubility set.

Assay: soluble on expression in E. coli; label from the status in PepcDB or PDB records

| Sequence | soluble on expression in E. coli |
| --- | --- |
| MGSDKIHHHHHHMHLDLLICSKPFIFNKVVDTKPFYQRTIMYKHTVSQHVFTFDSLTELMAKASPLRSGDQLAGIAAGSYQERIAAQMALADLPLTTFLQEPLIPYESDEVTRLIFDTHEHTAFTAIAHLTVGDFRNFLLSNNTHTSQLTALQKAITPEMAAAVSKIMNVQDLILVSSKCEIITRFRNTIGVKGCMSTRLQPNHPTDDLKAIMASVLDGLFYGSGDAVIGINPATDHISTQVQLLKLIDAVREQYAIPTQSCILSHITNTILAIEQGAPVDLVFQSIGGTEKTNSSFGINLSLLQEGYEAALSLGRGTIGNNVMYFETGQGSSLSANAHYGIDQQTLEARAYAVARAFNPLLVNTVVGFIGPEYLFDGKQIIRAGLEDHFCGKLMGLPMGCDICYTNHADADQDDMDALLTLLGVAGCNFIMGVPGSDDIMLNYQSTSFHDALYIRKLLNVKPAPEFEEWLLKMGIMNTQHEITVHRIYCG | not soluble |
| MGSDKIHHHHHHMSDLITLAQLSQGYRYNSDSLILADFILKQGIKGAVFDVGAGCGIIGILLKKNIANLSLSLIDIQKENIELIEKNLKSNKIQGDIFHDDFNQFQIIKKFDFIVCNPPFYRQGAYKSEDQHKAISKFQEFLPLHSFLAKTNSMLKPNGTLYFCYEALALDEICFILKDMKMKITKLCFVHTHQSKKARLVLIQVKKGSKSPCEILPPFFVYENEILSKQMQEIHLRFRLKSYDI | not soluble |
| GMHSAALLQKVDELPRLPKAIAELLDVVNNEDSTVKAVSEKLSHDPVLSARVLRLANSARFGCSREVGTIDDAVVRLGMQTLRTLVIASAVVGAVPKVEGFDLADFWGNTFEVAIICQELAKRLGTLPEEAFTCGILHSIGELLIVNGDPAVAATISAAVADGADRNLMEKELLGYDNAEIGALLAQSWKFTPHLVKGIQFQNHPKSAEPYSKLAGMLAMAKQIAADWDKIPDDERTSWLAQINILAGIKVDLGGLAEKLAKMHGQGMEMGKQLA | soluble |
| MTGKKRSASSSRWLQEHFSDKYVQQAQKKGLRSRAWFKLDEIQQSDKLFKPGMTVVDLGAAPGGWSQYVVTQIGGKGRIIACDLLPMDPIVGVDFLQGDFRDELVMKALLERVGDSKVQVVMSDMAPNMSGTPAVDIPRAMYLVELALEMCRDVLAPGGSFVVKVFQGEGFDEYLREIRSLFTKVKVRKPDSSRARSREVYIVATGRKP | soluble |
| MGSDKIHHHHHHMNYLKLKQDVQAGRVAPVYFMYGTELFLMEDLIQDILSVTLSDEERDMNVSSYSLTDVPIEAALEEAETVPFFGSKRVVILKDAALFTSQKLDVEHDVKRLEQYILNPVPETVLLIMAPYEKLDERKKITKLIKKESLVLEAKPLDEGEAKAWLSSLASELQVEMDEKAIETLLGMTGLRLTQLASEMNKLALYVGEGGIIRSEDVTLLVAKTLDQNIFDLIDFAINQRTHQALSLYHELLKQKEEPLKLLALLTRQFRIMYQVKELGRRGYTPNQMAKPLKIHPYVAKLAGKKAASMSDQLLYSLIEKAADTEFAIKSGKVDKVLALELFLLTMGSRESVG | not soluble |
| MSVSHAQLKAFHAVAVYGSFTRAAERLFLTQPAVSDQVRKLEERYGVLLFHRNKRSVRLSELGERLLAVTQRLFAIEAEAEELLSASSALQTGTLTLAVDAPVHVLPQIARFCERYPGIAVRVETGNTDESLQRLFSYQADLALLGRDVSDERLLSLTLRNDPIVAFVSLSHPWAGRESIRLADLDDMPLVLREQGSVTRQTLEEEMSRAGLRICPAIQVEGREASREAVVAGIGVGVVSAAEFGADTRVHALPIVDCQRRLTETLVCLREQRSRRIVETFLDLVGEDLPAPS | not soluble |
| MGSDKIHHHHHHMCQRPPARRATGPFPTLTASRAAARACTVTFQPNCARPCVRQRPEAAIDMAKTYNPAHADISPAARLAALGAGEAVDLGEYRVIRATHQDRPVFFAVRNAMDAIQKHHIEGAFYETEELDIIRRHFAPGETFIDLGANVGNHALYVAMYLEPAKVLCVEPNSLAYENLLANIVLNGVEETFDLSWLGFGVSCNVGDGFGITHWVHNLGGGKLIPRDGGTISLRSGDDILADTKADFIKIDVEGMEMDVLTSLENTVARDRPKIFVEVDNENRDAVLAWVDTHGYTTHETFKRYRDNENFLFVPESESET | not soluble |
| MKRKSKAGGASDKSKSPKLKKRRSVVLEPIHISPKYLEDKFKTEFKKGFEKSNGPFPHWQLRNFVDNSDNVVEKIEDELQNFEGWKRKENDLYSLYQSDDLKSINPVENPAVFSFRQFLYKEVKEWLQNVSGVELTEQVDCNGSCYARTDSLLPHNDLIETRRFAFVYYITSADWDSEVNGGDLQLFNHDKKLQPTSVAAQFSPLRNSFMLFEVSEKSWHRVAEMLSEEPRLSINGWFHSTRRIEPKKPAVEAIQRFVPEAACKLSKLISKEYLQKERQDEVQQTFADSSELNLSKFIFEEIHDNAYSELISNPSCFETVGPVSKRHVARLDEEKSADLQNTKRIIQCLKSKNFAKLAAKLTGVTVTGAQTSVKVSRVEHGTYWVLGDEDAEQSSTDGYCLDVHLFVQKTNWDDEAGGDLIYIEEGDTEELLRISPSPNAASIVFREPGVISFMKYANCKSSDPFFLFTVSFYNVQVVED | not soluble |
| MSLKDSEVTVLGAGVAGLAVARALALRGAEVTVLEQAEAIREVGAGLQISPNGAAVLRALGLGDALEAASMRAQAVELRNGVGGDLVLKLDLARLRPGQGYHLMHRADLIDLLAQGAREAGVQIRLLQKIEAVDLGGPRPRLVTAQGAEYAPNLLIGADGLHSLVRAELNGPAQPFFTNQVAWRTVIPATPGEPVVAEVHMGEGRHLVSYPMRGGTVRNIVAVEERKRWVQEGWNLRDDPVDLRLAFAGFNGRVRHWLEQVPDVWLWGLFRHPVAHTWYRGHAAILGDAAHPTLPFLAQGANMALEDAWVLAECLARHSNIKGGLADYQARRVPRCCRVVQAANNNAWAYHLRSPIREIAHLGLRLGSRLLPGPTLRRFDWLYGYDVTAASLEHHHHHH | soluble |
| MERKALVTGGSRGIGRAIAEALVARGYRVAIASRNPEEAAQSLGAVPLPTDLEKDDPKGLVKRALEALGGLHVLVHAAAVNVRKPALELSYEEWRRVLYLHLDVAFLLAQAAAPHMAEAGWGRVLFIGSVTTFTAGGPVPIPAYTTAKTALLGLTRALAKEWARLGIRVNLLCPGYVETEFTLPLRQNPELYEPITARIPMGRWARPEEIARVAAVLCGDEAEYLTGQAVAVDGGFLAY | soluble |
| MGSDKIHHHHHHAAGSPEEDMEDRVRIDPVAGGYYPSISPSAQTRGATPDGETLKDRPIFLLEDGSTIRLVVYDDAKNLLEEYSKAYLVRNAGTSGSSLLYPCEVDDNGAVISSSSTPLYMKAGTYYFRILSPAKALNSKGFVNIGNGEYLLATDDRYTQTAMTAVTITKIDEGGTLNNVQTLYLPPIINQTARMQFTVRAGEGVHTLEMLAEGIEISGIQQPLDNTTSFDWVNGDVLPVKVGDQSASVRITQATRNADNSLVAHTGVLPTDARSHSISVLLNLKVNGNPTQYQMLLTGLYLTAGHSYNYTATVKISNGVTVLTWQNRSWTENVVMDK | not soluble |
| MGSDKIHHHHHHLRMSRIQARLLQAIVRPALKTNLLKHAAWRVVLKLRNEFAHAVPPVELETTFDENIRILTSLSDHIESQVFWQGFQEADEGVILLLKRFLPSDGSFIDVGANIGTFTLVAAHRAVRGQVHAFEPSAHHFARLAHNVELNDFKNVALNRKGLYDQPGEAVLFLPSQTGEMNNSGAASLYTSALEETRQVSEAVSLIRLDDYVREKSIGRVDIIKIDIEGAELKALEGARETIARFRPLVFMELDLDNLERAERSPEEVLQYWKSLNYEVSIILLTGETVPVTSPKEFGLHQNLQCRPF | not soluble |
| MGSDKIHHHHHHMETITIDEKTLYNLTQPSEVIEELTHLNGNLTLVPNILSEDALLNKSVKEIEKIALEEADKTSPKHVRGKKIRRKGYAKYRFLKGFKIMLKGREDIYKLERISVELPVLYSDKGRVKTQVEERLLREEKVFKALMTVYSVLGGKLNAKLWMLEIQASGDFKYVIVDGKYVKLKGGRGSFSAIGVTEEGKRAVLDITLSVEKDVMSYWRLLVEVWKKYSFVLVVVDGTKALDKISLAELQVRRQGCLVHLKRNATKEEREALNVIFSAESGEIKPETCPRLLSYLSTPKELWRWLKSNNLIESFNSLLERRRFGSFHSPWRILQIARTIANNYNLSVVFHQFY | not soluble |
| MSERLEVSIEGEDDFPFDEDNIQELDHFDIGEDEDPEEVAQEDAGVWQERVPLTRQKRKQVLRKPGRKRTGEIIHIPKRQPPRAVRVKSYQQYDAFDELVEQDLDDSDPEVMDDDGEPSTSKTWRIFVRKDGSGMHFDWPIFMDSAVSLKDVVNFISTDASEIPKSLICTSIPQEFTNTGTFIIHLEEGLLKEEICNDGLGTWNSAQMFVRKYVLGVGRARPLMTQKNDHNLKHIFISGFDKDEHMIPYVVICYEWMGQPHPLTVYEDQTEKQAFEQMTWKKCSNPEDQVPILARHGCDYNSAVAILLSSEKCTNYGKSVPQFVQECISFVIDINECGGDRALFLDGNEWQRPSGSHRFFRILYPNQDHGDFDTWNIERASSNFNVTNSDIQIICRRYNGQKYSQSFGFVRKIYLLKILPLCPPEVAEQLHNRDLAVISYSYRNAPHPTFIEQPDRQKLPDGQRVGEEVELVSGDVMFDDDISPEMREMVENMERKKKINSERLMELLQRIHRIDQICKKEAWLESSAEVQQLTQIAQLLHYCQ | not soluble |
| MGSDKIHHHHHHMTAQQGVPIKITNKEIAQEFLDKYDTFLFDCDGVLWLGSQALPYTLEILNLLKQLGKQLIFVTNNSTKSRLAYTKKFASFGIDVKEEQIFTSGYASAVYIRDFLKLQPGKDKVWVFGESGIGEELKLMGYESLGGADSRLDTPFDAAKSPFLVNGLDKDVSCVIAGLDTKVNYHRLAVTLQYLQKDSVHFVGTNVDSTFPQKGYTFPGAGSMIESLAFSSNRRPSYCGKPNQNMLNSIISAFNLDRSKCCMVGDRLNTDMKFGVEGGLGGTLLVLSGIETEERALKISHDYPRPKFYIDKLGDIYTLTNNEL | not soluble |
| GRPYKLLNGIKLGVYIPQEWHDRLMEIAKEKNLTLSDVCRLAIKEYLDNHDKQKK | soluble |
| MAGDPMSLPGLSAAADQTIKIGAQSMSESEIIASMLGQLIEHHTDLKTTTIKNLGSNAVQQQALMNGEIDIAATRYTGDALTGTLRMEPEKDPDKALALTQREFKKRYDLKWYDSYGFDNTYAFTVSKELADQYHLETVSDVKKWAPQLKLGVDNYWMKLKGNGYQDFTKTYGMTFGGTYPMQIGLVYDAVKSGKMDIVLAYSTDGRIKSYGLKMLKDDKQFFPPYDCSPVVPEKVLKEHPELEGIIKKMLGKIDTATMQELNYEVDGNLKEPSVVAKEYLEKHRYFESLEHHHHHH | soluble |
| QYAIERHFYSQDFSYISSKFNAIENELKSSLEDVFKQANNSTLYMWVFEGKLNVYQNSSLTIPQNRAYSISSPQVLNHERAIEWSEDSLNIRAFAFQAGEYQVVLGMSINHHILFLDKLD | not soluble |
| MIDRQTNEPKQKTRIILAPMQGLVDDVMRDLLTRIGGYDECVSEFVRITHTVHSRSIWLKYVPEIANGNKTFSGTPCTVQLLGSDADNMAANALEAVRFGANKIDLNFGCPAPTVNKHKGGAILLKEPELIFHIVKTLRGRLPAHIPLTAKMRLGYEDKSRALECACAIAEGGACGLTVHARTKAEGYEPPAHWEWIRKIRDSVNIPVTANGDVFSLQDYIGIKTISGCNSVMLGRGAVIRPDLARQIKQYENGGPVKDTDFAEVSKWIRQFFELCLTKEANNKYPLARLKQWLGMMKKEFAAAQNLFDRVRTVKDADEVRNILAEFEREMNT | not soluble |
| MLTEQQFRDEIRGFVDKMNENNFHWQLKEIGKYARETHLKTLSDGRVITSETHILYNSTYQVPTIWFNFFENNGSPLPFRTVIRDVLNISETEESEASIRSRISHYEHPFMGVLYYNIHPCNTSNIMKELNTDRSYLMSWFSVYGQQIGLKLPDRVL | not soluble |
